Measured values as given in paper PMC3305808 (Molecular Microbiology, 2012).
Substitutions are numbered along the chain they refer to. Names may count otherwise.

B1: λcIDB-AaTadZ (TadZ of Aggregatibacter actinomycetemcomitans fused to the N-terminal DNA-binding domain of λ cI) (natural protein)
chain: MLLLDQETITADSARTITVVSSRDDIQGEVAQTLRTRGLENIEIVKKDFFTSSDEISFSAEDTVGVIIDITHETNIKTIVERVFSVVPQNVWCCVIGDSDSISLSQKLLDEGILYFNSHTQLSQMVEKIILGVDIPRLRDTVKIAVLSCKGGIGASLISSHIANEIVSSKKIPVLLAQGPNGSQDLDLLFDKKLSGNVIEYAPNLDIFNGGLFELTPAATEKYNFIIYDQPIYNVKKDNFIGFLENYNNFVLVVERKIGSLRLAKQFLDECERIRSTSRKPIRTFVCISDNRLEAAKLMAKNDIETLIGSSIDAIIPYVKNTNTKTVLGINLGRDGKKEINSLMLKVIGAISRSSKPKEKQSLFSSFFTKLIKQ
B2: λcIDB-AaTadZ S156A (natural protein)
chain: B1 chain with S156A
B3: λcIDB-AaTadZ S156T (natural protein)
chain: B1 chain with S156T
B4: λcIDB-AaTadZ A155K (natural protein)
chain: B1 chain with A155K
B5: λcIDB-AaTadZ K150R (natural protein)
chain: B1 chain with K150R
B6: λcIDB-AaTadZ K150A (natural protein)
chain: B1 chain with K150A

Molecular target: the molecule itself
Assay: λ cI repressor fusion dimerization assay

Row | Protein | % repression of λpR-lacZ
1 | B1 | 60.1%
2 | B2 | 57.6%
3 | B3 | 53.7%
4 | B4 | 49.7%
5 | B5 | 49%
6 | B6 | 60.3%
